Numbering of substitutions follows the chain as printed. In names and notes the source's numbering stands. One block for each binder: values may come before it.
Target: T1, Recombinant in-house Human FcRn protein (human, UniProt P55899 24-297; P61769 21-119)
T1 construct: also called HuFcRn; huFcRn
Assay: competition ELISA, huFcRn coated, pH 6.0, competitor biotinylated human IgG1; reference PAL02-0002
Protocol: A competitive binding ELISA assay was used to screen for molecules that prevent IgG from binding to recombinant in-house human FcRn protein at pH 6.0. Candidate therapeutics prevent FcRn from binding IgG Abs in the acidic pH 6.0 endosomal environment. […] IC50 values were calculated using GraphPad Prism 7 software applying a nonlinear regression (curve fit) of a log (antagonist) vs. response—variable slop (four parameters).

B1: Construct 1 PAL02-0195 (IgG1 Fc_M252Y/S254T/T256E/M428L/H433K/N434F) (other)
chain: DKTHTCPPCPAPELLGGPSVFLFPPKPKDTLYITREPEVTCVVVDVSHEDPEVKFNWYVDGVEVHNAKTKPREEQYNSTYRVVSVLTVLHQDWLNGKEYKCKVSNKALPAPIEKTISKAKGQPREPQVYTLPPSRDELTKNQVSLTCLVKGFYPSDIAVEWESNGQPENNYKTTPPVLDSDGSFFLYSKLTVDKSRWQQGNVFSCSVLHEALKFHYTQKSLSLSPG
notes: Fc fragment variant
- IC50 as a ratio to Efgartigimod: ~0.5 ratio

B3: Construct 3 PAL02-0197 (IgG1 Fc_M252Y/S254T/T256E/H433K/N434Y) (other)
chain: B1 chain with L208M, F214Y
notes: Fc fragment variant
- IC50 as a ratio to Efgartigimod: ~0.5 ratio
- fold lower IC50 than Efgartigimod: 3.5 fold

B5: Construct 4 PAL02-0198 (IgG1 Fc_M252Y/S254T/T256E/M428L/N434F) (other)
chain: B1 chain with K213H
notes: Fc fragment variant
- IC50 as a ratio to Efgartigimod: ~0.5 ratio

The next lines start with the values.

- IC50 as a ratio to Efgartigimod: ~0.5 ratio
B2: Construct 6 PAL02-0202 (IgG1 Fc_M252Y/S254T/T256E/H433R/N434F) (other)
chain: B1 chain with L208M, K213R
notes: Fc fragment variant

- IC50 as a ratio to Efgartigimod: ~0.5 ratio
B4: Construct 5 PAL02-0200 (IgG1 Fc_M252Y/S254T/T256E/H433R/N434Y) (other)
chain: B1 chain with L208M, K213R, F214Y
notes: Fc fragment variant
